# Laboratory results reported in publication PMC11417369, “DNA sequence and chromatin differentiate sequence-specific transcription factor binding in the human malaria parasite Plasmodium falciparum”.
# T1: AP2-LT D1 (Plasmodium falciparum, UniProt Q8IAM1 2520-2577)
# T1 sequence: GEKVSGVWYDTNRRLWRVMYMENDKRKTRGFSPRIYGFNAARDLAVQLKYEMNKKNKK
# Biological target: T1, AP2-LT D1
# Assay: gcPBM; about 25 ug protein; PBS, 1% milk, 0.2 mg/ml BSA, salmon testes DNA, 0.03% Triton X-100
# Conditions: tags: N-terminal GST (pGEX-4T-1), kept; label: surface-attached array probe
row,Binder,binding signal
1,CACACA_site126 (dsDNA) DNA 1: ACGATATTTTTGGTGACACACATATATATATATATA DNA 2: TATATATATATATATGTGTGTCACCAAAAATATCGT,"9.9 ln median PBM intensity, better of two orientations"
2,CACACA_site656 (dsDNA) DNA 1: ACAATATCTAGATACACACACATATCTCTCAATCTA DNA 2: TAGATTGAGAGATATGTGTGTGTATCTAGATATTGT,"9.5 ln median PBM intensity, better of two orientations"
3,CACACA_site3128 (dsDNA) DNA 1: CCACTAATAAATATTACACACATATATATATATATT DNA 2: AATATATATATATATGTGTGTAATATTTATTAGTGG,"9.47 ln median PBM intensity, better of two orientations"
4,CACACA_site8242 (dsDNA) DNA 1: AATTTACACGTACGTGTACACACAAAAATATGTTTT DNA 2: AAAACATATTTTTGTGTGTACACGTACGTGTAAATT,"9.37 ln median PBM intensity, better of two orientations"
5,CACACA_site2004 (dsDNA) DNA 1: AAAATGTGCCCACGCGTACACACAAAAAAAGAAAAA DNA 2: TTTTTCTTTTTTTGTGTGTACGCGTGGGCACATTTT,"9.36 ln median PBM intensity, better of two orientations"
6,CACACA_site4591 (dsDNA) DNA 1: CACATACAGATATATACACACAAATATATATACTCA DNA 2: TGAGTATATATATTTGTGTGTATATATCTGTATGTG,"9.49 ln median PBM intensity, better of two orientations"
7,CACACA_site2423 (dsDNA) DNA 1: GTGCATAAATCATACACACACACATATATATATATA DNA 2: TATATATATATATGTGTGTGTGTATGATTTATGCAC,"10 ln median PBM intensity, better of two orientations"
8,CACACA_site8822 (dsDNA) DNA 1: ATTATGCACCAACACACACACACACTCCTAAAAAAT DNA 2: ATTTTTTAGGAGTGTGTGTGTGTGTTGGTGCATAAT,"9.97 ln median PBM intensity, better of two orientations"
9,CACACA_site5583 (dsDNA) DNA 1: ATTAAATACATTAACACACACACAAATAAATACATA DNA 2: TATGTATTTATTTGTGTGTGTGTTAATGTATTTAAT,"9.88 ln median PBM intensity, better of two orientations"
10,CACACA_site2459 (dsDNA) DNA 1: ACCTAAGAACTATTTACACACATATACAAAATATAT DNA 2: ATATATTTTGTATATGTGTGTAAATAGTTCTTAGGT,"9.34 ln median PBM intensity, better of two orientations"
11,CACACA_site7437 (dsDNA) DNA 1: AGATAAAAAAAGTACACACACACATATATTTATATA DNA 2: TATATAAATATATGTGTGTGTGTACTTTTTTTATCT,"9.98 ln median PBM intensity, better of two orientations"
12,CACACA_site262 (dsDNA) DNA 1: ATTATGTATACATAAACACACATATATATAAAAAAA DNA 2: TTTTTTTATATATATGTGTGTTTATGTATACATAAT,"9.35 ln median PBM intensity, better of two orientations"
13,CACACA_site699 (dsDNA) DNA 1: ATTTATATATAATATACACACATATAATCCACATAT DNA 2: ATATGTGGATTATATGTGTGTATATTATATATAAAT,"9.4 ln median PBM intensity, better of two orientations"
14,CACACA_site1961 (dsDNA) DNA 1: ATTTTTTAACATATCATACACACAACCACTTTTTAT DNA 2: ATAAAAAGTGGTTGTGTGTATGATATGTTAAAAAAT,"9.38 ln median PBM intensity, better of two orientations"
15,CACACA_site452 (dsDNA) DNA 1: CACAAAGACACAAACACACACACACCCACATACATA DNA 2: TATGTATGTGGGTGTGTGTGTGTTTGTGTCTTTGTG,"10 ln median PBM intensity, better of two orientations"
16,CACACA_site3695 (dsDNA) DNA 1: AAGCTTCATTAATATACACACATATATGCGTATATT DNA 2: AATATACGCATATATGTGTGTATATTAATGAAGCTT,"9.46 ln median PBM intensity, better of two orientations"

row,Binder,binding signal
1,CACACA_site5015 (dsDNA) DNA 1: ACCTCATAATATTTAACACACAAAATTATCTGTATG DNA 2: CATACAGATAATTTTGTGTGTTAAATATTATGAGGT,"9.39 ln median PBM intensity, better of two orientations"
2,CACACA_site8278 (dsDNA) DNA 1: GTAACATACACATATACACACACACCGATATACATA DNA 2: TATGTATATCGGTGTGTGTGTATATGTGTATGTTAC,"10 ln median PBM intensity, better of two orientations"
3,CACACA_site5592 (dsDNA) DNA 1: AATATAAACAAACACACACACATATATATATATATT DNA 2: AATATATATATATATGTGTGTGTGTTTGTTTATATT,"9.96 ln median PBM intensity, better of two orientations"
4,CACACA_site4472 (dsDNA) DNA 1: TTTGAATCCTTATATACACACATTATATAATATTAT DNA 2: ATAATATTATATAATGTGTGTATATAAGGATTCAAA,"9.33 ln median PBM intensity, better of two orientations"
5,CACACA_site5230 (dsDNA) DNA 1: ATAATATCATCAAACGCACACATACATAAATATATT DNA 2: AATATATTTATGTATGTGTGCGTTTGATGATATTAT,"9.51 ln median PBM intensity, better of two orientations"
6,CACACA_site1083 (dsDNA) DNA 1: CTACACAAGCATTAAACACACAAAAGGGATACTTTG DNA 2: CAAAGTATCCCTTTTGTGTGTTTAATGCTTGTGTAG,"9.43 ln median PBM intensity, better of two orientations"
7,CACACA_site2254 (dsDNA) DNA 1: TTTTTTTTTATTATCATGCACACATTTTTTTTTTTT DNA 2: AAAAAAAAAAAATGTGTGCATGATAATAAAAAAAAA,"9.48 ln median PBM intensity, better of two orientations"
8,CACACA_site1192 (dsDNA) DNA 1: AAAAATACCTTATATATACACACTATGTTTTTCTTT DNA 2: AAAGAAAAACATAGTGTGTATATATAAGGTATTTTT,"9.31 ln median PBM intensity, better of two orientations"
9,CACACA_site6577 (dsDNA) DNA 1: AGCAACCCCCTAGCTACACACATATAGATATAAATA DNA 2: TATTTATATCTATATGTGTGTAGCTAGGGGGTTGCT,"9.99 ln median PBM intensity, better of two orientations"
10,CACACA_site5706 (dsDNA) DNA 1: CTATTTTGGATGTGTACACATATATATATTTATATT DNA 2: AATATAAATATATATATGTGTACACATCCAAAATAG,"9.41 ln median PBM intensity, better of two orientations"
11,CACACA_site8541 (dsDNA) DNA 1: AAGTACATACATAAAACACACACATATATATATATA DNA 2: TATATATATATATGTGTGTGTTTTATGTATGTACTT,"9.93 ln median PBM intensity, better of two orientations"
12,CACACA_site7896 (dsDNA) DNA 1: TATACATACATACATACACACACACCGATATATATA DNA 2: TATATATATCGGTGTGTGTGTATGTATGTATGTATA,"9.94 ln median PBM intensity, better of two orientations"
13,CACACA_site6367 (dsDNA) DNA 1: AATATCTTAGTGGATACACACATATAAATGTGTATT DNA 2: AATACACATTTATATGTGTGTATCCACTAAGATATT,"9.32 ln median PBM intensity, better of two orientations"
14,CACACA_site3715 (dsDNA) DNA 1: ATATATATATAATAAACACACAAATAGATATAACAT DNA 2: ATGTTATATCTATTTGTGTGTTTATTATATATATAT,"9.52 ln median PBM intensity, better of two orientations"
15,CACACA_site1139 (dsDNA) DNA 1: TCTGTTAATATTTATACACACATATATATATATATA DNA 2: TATATATATATATATGTGTGTATAAATATTAACAGA,"9.45 ln median PBM intensity, better of two orientations"
16,CACACA_site960 (dsDNA) DNA 1: TGAATATTTACTTTAGCACACAATTTGTATTTGATT DNA 2: AATCAAATACAAATTGTGTGCTAAAGTAAATATTCA,"9.42 ln median PBM intensity, better of two orientations"
